{
  "source": "paper PMC5566480",
  "binders": {"B1": {"name": "Recombinant LipL32 wild type, mature form (rLipL32; 21-272) V35S (protein)", "chain": "GAFGGLPSLKSSFSLSESTVPGTNETVKTFLPYGSVINYYGYVKPGQAPDGLVDGNKKAYYLYVWIPAVIAEMGVRMISPTGEIGEPGDGDLVSDAFKAATPEEKSMPHWFDTWIRVERMSAIMPDQIAKAAKAKPVQKLDDDDDGDDTYKEERHNKYNSLTRIKIPNPPKSFDDLKNIDTKKLLVRGLYRISFTTYKPGEVKGSFVASVGLLFPPGIPGVSPLIHSNPEELQKQAIAAEESLKKAASDATK"}, "B2": {"name": "Recombinant LipL32 wild type, mature form (rLipL32; 21-272) L36S (protein)", "chain": "B1 chain with S14V, L15S"}, "B3": {"name": "Recombinant LipL32 wild type, mature form (rLipL32; 21-272) F34S (protein)", "chain": "B1 chain with F13S, S14V"}},
  "note": "Where a chain is given by its changes, count along the chain named. Names and notes keep the numbering of the source.",
  "data": [
    {"target": "Recombinant human Toll-like receptor 2 (rTLR2), O60603", "sequence (O60603 21-784)": "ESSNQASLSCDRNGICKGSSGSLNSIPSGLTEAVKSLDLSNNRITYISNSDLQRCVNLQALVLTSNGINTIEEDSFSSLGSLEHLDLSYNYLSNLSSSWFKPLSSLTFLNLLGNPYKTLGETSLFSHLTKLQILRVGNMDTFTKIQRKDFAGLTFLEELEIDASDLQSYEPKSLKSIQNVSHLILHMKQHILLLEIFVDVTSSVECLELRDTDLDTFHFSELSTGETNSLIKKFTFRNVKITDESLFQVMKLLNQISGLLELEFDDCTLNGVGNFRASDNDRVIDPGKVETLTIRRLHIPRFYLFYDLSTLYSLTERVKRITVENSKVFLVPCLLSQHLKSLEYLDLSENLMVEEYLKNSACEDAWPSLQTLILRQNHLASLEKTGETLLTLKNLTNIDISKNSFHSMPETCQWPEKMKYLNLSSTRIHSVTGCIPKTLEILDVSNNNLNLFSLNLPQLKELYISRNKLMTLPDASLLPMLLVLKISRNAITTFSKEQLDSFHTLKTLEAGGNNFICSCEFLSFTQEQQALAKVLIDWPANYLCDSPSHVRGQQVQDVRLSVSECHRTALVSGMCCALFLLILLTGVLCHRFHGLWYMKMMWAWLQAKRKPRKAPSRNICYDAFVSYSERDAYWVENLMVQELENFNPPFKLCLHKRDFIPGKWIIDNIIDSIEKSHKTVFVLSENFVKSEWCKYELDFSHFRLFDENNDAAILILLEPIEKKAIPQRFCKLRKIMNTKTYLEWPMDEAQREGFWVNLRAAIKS", "assay": "ELISA", "conditions": "chain shown with the change;; parent: est. 0.37; read off a plot", "units": {"response": "OD450nm"}, "values": [
      {"binder": "B1", "response": 0.25},
      {"binder": "B2", "response": 0.23},
      {"binder": "B3", "response": 0.31}
    ]}
  ]
}
